From article PMC8960796, “Crystal structure report of the ImmR transcriptional regulator DNA-binding domain of the Bacillus subtilis ICEBs1 transposon” (Scientific Reports, 2022) come the findings set out here.

The series deals with the molecule itself. The series can be described thus: crystal structure; crystals from 18% (w/v) PEG 3350, 10 mM magnesium chloride, 50 mM Tris-HCl pH 8.5; space group I2, two protomers per a.u. related by a dyad; data at 100 K, 2.10 Å.

B1: ImmR transcriptional regulator DNA-binding domain (Bacillus subtilis ICEBs1) (domain or fragment, Bacillus subtilis strain 168, UniProt P96631 1-64, looked up)
chain: MSLGKRLKEARQKAGYTQKEAAEKLNIGNNNLSNYERDYRDPDTDTLLKLSNLYNVSTDYLLGK
notes: ImmR, HTH-type transcriptional regulator of ICEBs1, Bacillus subtilis strain 168, 127 residues; the final model comprises M1-K64 of molecules A and B, each with an N-terminal alanine (A0) left from the purification tag; Full-length ImmR (1-127) was set up for crystallisation; The authors suppose that a trypsin-like contaminant cut it after K64, because there is no density beyond K64 and the …
For B1, the binding result is given as “binds”.
